Laboratory results published in patent publication US20060040881.

System: Coagulation factor IX/IXa (Macaca fascicularis)
Experiment: inhibition
Details: guggaCUaUaCCgCgUaaUgCuGcCUccacT; lower case 2'-OMe, upper case C/U 2'-F, upper case A/G 2'-OH, 3' idT; concentration inhibiting about 90% of plasma FIX activity (APTT 1.6-fold); >95% at 10-12 ug/mL; cynomolgus plasma; text cites Apt39 as SEQ ID NO:88

With GUGGACUAUACCGCGUAAUGCUGCCUCCAC [Apt39] the activity was 6 µg/mL.
